Source: WO2022065344A1 (dated 2022)

Experiments:
[1] = target: T1, gp46 partial peptide 188-199 with P192 replaced by Ala (HTLV-1); experiment: ELISA on Ala-substituted gp46 188-199 peptides
T1 peptide: PPLLAHSNLDHI

[2] = target: T2, gp46 partial peptide 188-199 with L196 replaced by Ala (HTLV-1); experiment: ELISA on Ala-substituted gp46 188-199 peptides
T2 peptide: PPLLPHSNADHI

[3] = target: T3, gp46 partial peptide 188-199 with N195 replaced by Ala (HTLV-1); experiment: ELISA on Ala-substituted gp46 188-199 peptides
T3 peptide: PPLLPHSALDHI

[4] = target: T4, gp46 partial peptide 188-199 with L191 replaced by Ala (HTLV-1); experiment: ELISA on Ala-substituted gp46 188-199 peptides
T4 peptide: PPLAPHSNLDHI

[5] = target: T5, gp46 partial peptide 188-199 with S194 replaced by Ala (HTLV-1); experiment: ELISA on Ala-substituted gp46 188-199 peptides
T5 peptide: PPLLPHANLDHI

[6] = target: T6, gp46 partial peptide 188-199 with H193 replaced by Ala (HTLV-1); experiment: ELISA on Ala-substituted gp46 188-199 peptides
T6 peptide: PPLLPASNLDHI

[7] = target: T7, HTLV-1 envelope protein gp62 extracellular region (gp46), expressed in 293T cells together with GLUT1 (HTLV-1, UniProt P03381 21-312); experiment: flow cytometry on 293T cells transfected with HTLV-1 and GLUT1 vectors against pcDNA3.1 control cells
T7 construct: also called HTLV-1-expressing cells; gp62-expressing cells
T7 sequence: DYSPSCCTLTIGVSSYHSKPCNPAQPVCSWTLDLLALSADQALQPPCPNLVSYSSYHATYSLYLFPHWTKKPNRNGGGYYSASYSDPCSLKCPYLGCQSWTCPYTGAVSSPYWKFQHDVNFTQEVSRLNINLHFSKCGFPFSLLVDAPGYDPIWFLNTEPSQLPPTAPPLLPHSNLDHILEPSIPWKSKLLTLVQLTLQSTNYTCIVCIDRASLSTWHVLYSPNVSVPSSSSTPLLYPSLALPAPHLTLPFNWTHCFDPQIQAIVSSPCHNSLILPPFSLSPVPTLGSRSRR

[8] = target: T8, HTLV-1 gp46 peptide 180-204 (HTLV-1); experiment: SPR, Biacore T200, antibody amine-coupled on CM5 chip, peptide as analyte, affinity (steady-state) analysis
T8 construct: also called HTLV-1 gp46 peptide 180 to 204; gp46 antigen peptide
T8 peptide: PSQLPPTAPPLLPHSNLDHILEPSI

B1: humanized anti-HTLV-1 antibody hMAb1_H1L12 (antibody, human IgG1, kappa, V domains shown)
VH: EVQLVESGGGLVQPGGSLRLSCAASGFTFGGFPMAWVRQAPGKGLEWVSTISPGAVNTYYADSVKGRFTISRDNSKNTLYLQMNSLRAEDTAVYYCAREGYGFSSFEYWGQGTLVTVSS
VL: DIQMTQSPSSLSASVGDRVTITCKSSQTLLYSGNQKNYLAWYQQKPGKAPKLLISWASTRQSGVPSRFSGSGSGTDFTLTISSLQPEDFATYYCQQYFATPITFGQGTKVEIKR
notes: Human IgG1, kappa
B1: binds [1]; binds [2]; binds [3]. B1: binds [4]; binds [5]; binds [6].

B2: rat anti-HTLV-1 monoclonal antibody rMAb98 (antibody, V domains shown)
VH: EVQLVESGGGLVQPGWSMKLSCAASGFTFSGSPMGWVRQAPTKGLEWVATISPTGATTYYRDSVKGRFTISRDNAKATLYLQMNSLRSEDTATYYCTREGYGYSSFDYWGQGVMVTVSS
VL: DIVMTQSPSSLAVSAGETVTINCKSSQSLLFSGYQKNYLAWYQQKPGQSPRLLIYWASTRQSGVPDRFIGSGSGTDFTLTVSSVQAEDVATYYCQQYFDTPLTFGSGTKLEIKR
B2: binds [7].

B3: rat anti-HTLV-1 monoclonal antibody rMAb1 (antibody, V domains shown)
VH: EIQLVESGGGLVQPGRSMKLSCEALGFTFGGFPMAWVRQAPTKGLEWVATISPGAVNTYYGDSVKGRFTISRDNAKSTLYLQMNSLRSEDTATYYCVREGYGFSSFEYWGQGVTVTVSP
VL: DIVMTQSPSSLAVSAGETVTIKCKSSQTLLYSGNQKNYLAWYQQKPGQSPKLLICWASTRQSSVPDRFIGSGSGTDFTLTISSVQAEDLAIYYCQQYFATPITFGSGTKLEIKR
With B3 the Kd [8] was 3.49 nM, the binding result [7] was “binds” and the binding result [1] was “binds”. B3: binds [2]; binds [3]; binds [4]. B3: binds [5]; binds [6].
